Results reported in US20030060605A1 (LA JOLLA INSTITUTE FOR ALLERGY AND IMMUNOLOGY, published 2003).

What was measured:
[1] = target: soluble HSV gD-1 (glycoprotein D of HSV-1) (herpes simplex virus type 1, UniProt Q69091 26-331); assay: binding inhibition experiments, flow cytometry
[2] = target: gD-1 (Δ290-299t), mutant of soluble HSV gD-1 (herpes simplex virus type 1, UniProt Q69091 26-331); assay: binding inhibition experiments, flow cytometry

B1: TNFR60:Fc (Fc fusion, UniProt P19438 30-211, looked up)
chain: LVPHLGDREKRDSVCPQGKYIHPQNNSICCTKCHKGTYLYNDCPGPGQDTDCRECESGSFTASENHLRHCLSCSKCRKEMGQVEISSCTVDRDTVCGCRKNQYRHYWSENLFQCFNCSLCLNGTVHLSCQEKQNTVCTCHAGFFLRENECVSCSNCKKSLECTKLCLPQIENVKGTEDSGTT
notes: also called TNFR:Fc; TNFR1-Fc; not shown: Fc region of human IgG1
binding result [1]: no binding
binding result [2]: no binding
